Article PMC11843870

Biological target: Xn-XptA2 wt (A subunit, TcA, of the ABC toxin complex of Xenorhabdus nematophilus) (Xenorhabdus nematophilus)
Assay: cryo-EM structure; single particle analysis, 1.5 mg/mL protein in 10 mM Tris, 100 mM NaCl, pH 7.5; C5 symmetry

**Q.** How did the stoichiometry N turn out when “Xn-XptA2 wt (A subunit, TcA, of the ABC toxin complex of Xenorhabdus nematophilus) (natural protein)” was run?
**A.** 5
